# In patent US20240101959A1, “USE OF IL-2R-BETA-GAMMA AGONIST PEPTIDES IN CELL MANUFACTURING” (MEDIKINE, INC., priority 2022, published 2024):
# Positions of bridges follow the written chain, without caps; N, C: chain ends. No end group written: not given here.
# T1: hu-IL-2Rβ subunit (human, UniProt P14784 27-240, limits assumed)
# T1 construct: also called human interleukin-2 receptor subunit β; CD122
# T1 sequence (looked up): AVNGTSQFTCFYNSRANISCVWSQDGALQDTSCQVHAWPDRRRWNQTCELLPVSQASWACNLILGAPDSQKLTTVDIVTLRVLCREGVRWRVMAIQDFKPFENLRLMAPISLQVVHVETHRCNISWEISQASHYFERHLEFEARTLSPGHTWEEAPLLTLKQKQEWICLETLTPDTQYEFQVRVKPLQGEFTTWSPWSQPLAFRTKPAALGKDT
# Biological target: T1, hu-IL-2Rβ subunit
# Assay: phage ELISA competition assay
row,Binder,IC50 [µM]
1,TPWYDCYIANVGDLCDFASA [SEQ ID NO 509],< 100
2,SMDQDCYFAQVGELCVLFNQ [SEQ ID NO 519],< 100
3,WYPCWMAKVGELCDME [SEQ ID NO 494],< 100
4,FGDDFCRFIPLFEMCTTDVE [SEQ ID NO 513],< 100
5,WEWYDCLMAQVGELCDFEGN [SEQ ID NO 517],< 100
6,HRGWVGWYPCEYALPGQLCDLE [SEQ ID NO 501],< 100
7,WWPCEWARIGELCDLE [SEQ ID NO 486],< 100
8,WFPCWLAKVGELCDRDDLAGPS [SEQ ID NO 485],< 100
9,RYVPDCLKAQVGDLCDFFAW [SEQ ID NO 492],< 100
10,WEHEFTWYPCWIAQVGELCDMD [SEQ ID NO 500],< 100
11,GGYYDCLIAEVGELCDIYGR [SEQ ID NO 520],< 100
12,SGKTQMWNPCYVAKVGELCDLV [SEQ ID NO 482],< 100
13,WLPCWLAKLGELCDLEWLPCW [SEQ ID NO 111],< 100
14,YDCYIAQVGELCDI [SEQ ID NO 522],< 100
15,WLPCWIAKIGDLCDLD [SEQ ID NO 498],< 100
16,MRTTFWYDCYIAQVGELCDF (not fully specified (bridges); cysteine pairing not given here) [SEQ ID NO 479],< 100
17,DKAGPNFYPCWLAHVGELCDQA [SEQ ID NO 483],< 100
18,RWMFDCLFARVGELCDIRPW [SEQ ID NO 506],< 100
19,EWFHDCFLAKVGDLCDLFLW [SEQ ID NO 481],< 100
20,KWFHDCFLAKVGDLCDLFLW [SEQ ID NO 533],< 100
21,RAWWWPCELAQVGELCDLEPSS [SEQ ID NO 490],< 100
22,WYPCWLAKVGELCDQE [SEQ ID NO 491],< 100
23,SRVWHPCWLARVGELCDLEVSD [SEQ ID NO 499],< 100
24,WGRNRSWYPCWMAQLGELCDLE [SEQ ID NO 113],< 100

row,Binder,IC50 [µM]
1,GGYYDCLIAEVGELCDMPGQ [SEQ ID NO 507],< 100
2,WQIFDCYLAQVGELCDLQDT [SEQ ID NO 511],< 100
3,VTVQDCYFARVGDLCDLFSP [SEQ ID NO 516],< 100
4,LPFQDCYIAQVGELCDLPGT [SEQ ID NO 505],< 100
5,VVCYACDIAHVGELCDLTCR [SEQ ID NO 508],< 100
6,WAFYDCRNAQVGDFCDLWEF [SEQ ID NO 518],< 100
7,SNWHDCLFAQVGELCDLPGS (not fully specified (bridges); cysteine pairing not given here) [SEQ ID NO 521],< 100
8,RVRRHSWWPCEIAVVGELCDLE (not fully specified (bridges); cysteine pairing not given here) [SEQ ID NO 503],< 100
9,ETEQMSWYPCWVAQLWELCDLD (disulfide 10-19 (inferred)) [SEQ ID NO 110],< 100
10,VSRYDCYIAKVGELCDFFEF [SEQ ID NO 515],< 100
11,DGWWPCWIAQVGELCDLEDPV (not fully specified (bridges); cysteine pairing not given here) [SEQ ID NO 504],< 100
12,KGSSWFPCYFAQVGDLCDLY [SEQ ID NO 487],< 100
13,WYPCWLAQVGELCDRE [SEQ ID NO 488],< 100
14,QITDSGWYPCWVAKVGELCDMD [SEQ ID NO 495],< 100
15,YRWWYPCDIAQVGELCDLDYLL [SEQ ID NO 496],< 100
16,WWPCYLAQIGELCDLV [SEQ ID NO 493],< 100
17,AGFRGRWWPCEYAQVGELCDLE [SEQ ID NO 484],< 100
18,LVYYDCYMAQVGELCDLPSL [SEQ ID NO 514],< 100
19,LESLDCFFARIGDLCEIWDV [SEQ ID NO 510],< 100
20,GRYPDCYIAHVGELCEFYDG (not fully specified (bridges); cysteine pairing not given here) [SEQ ID NO 512],< 100
21,RGVYFPCWLAKVGDLCDSDEF [SEQ ID NO 489],< 100
22,SWHAETWYPCWLAQVGELCDLD [SEQ ID NO 480],< 100
23,ERRPDTWFPCWRALVGELCDLE [SEQ ID NO 112],< 100
